Source: the supplement of paper PMC6757056
± gives the standard deviation of the averaged measurements.

B1: library; a variant is named by its letters at N, in order (parent)
chain: GCUGUCACCGAGAAACUGUGAAGUAUAUCUUAAACCUGGGCACUUAAAAGAUAUAUGGAGUUAGUAGUGCAACCUGCUCGGUCUGAUGAGUCCNNNNNNGGACGAAACAGC

Tests used:
cyclic di-GMP [1] = variants of: B1; experiment: normalized RNA/DNA level without ligand (relative to sTRSVctl = 100) (log10 (% of sTRSVctl)); HEK293T; ligand: cyclic di-GMP (c-di-GMP-II aptamer); higher = less ribozyme self-cleavage, higher mRNA level; settings: reporter: mCherry (pCS4076), ligand present: no
How it was run: (§1)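 Library plasmids encoding reporter-linked ribozyme switches (mCherry, or eGFP for some folinic acid experiments) were transfected into HEK293T at 4 µg per 6-well well. Ligand, when used, was added 1 h before transfection. Total RNA was extracted with EDTA 72 h later, then reverse-transcribed, amplified, barcoded and sequenced. RNA level was RNA reads over DNA reads, divided by a spiked-in non-cleaving control (or the top 25 sequences), ×100, log10; only sequences with ≥100 DNA reads were kept.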

cyclic di-GMP [2] = variants of: B1; experiment: normalized RNA/DNA level with ligand (relative to sTRSVctl = 100) (log10 (% of sTRSVctl)); HEK293T; ligand: cyclic di-GMP (c-di-GMP-II aptamer); ligand concentration (+) RNA-Seq: 1 mM; higher = less ribozyme self-cleavage, higher mRNA level; settings: reporter: mCherry (pCS4076), ligand present: yes
How it was run: as §1

| Variant | normalized RNA/DNA level without ligand (log10) (cyclic di-GMP [1]) | normalized RNA/DNA level with ligand (log10) (cyclic di-GMP [2]) |
| --- | --- | --- |
| GACUAU | 1.645 ± 0.009 | 1.81 ± 0.12 |
| GACUAA | 1.55 ± 0.045 | 1.74 ± 0.12 |
| GACUAC | 1.7044 ± 0.00077 | 1.82 ± 0.15 |
| GACUAG | 1.668 ± 0.0042 | 1.79 ± 0.16 |
| CAGAUC | 1.61 ± 0.03 | 1.71 ± 0.18 |
| CAGAUG | 1.63 ± 0.0074 | 1.75 ± 0.13 |
| CAGAUU | 1.48 ± 0.11 | 1.65 ± 0.1 |
| CAGGGC | 1.73 ± 0.044 | 1.86 ± 0.16 |
| CAGGGA | 1.53 ± 0.13 | 1.67 ± 0.067 |
| CAGGGG | 1.63 ± 0.032 | 1.74 ± 0.075 |
| UACGGU | 1.6 ± 0.032 | 1.78 ± 0.098 |
| UACGGC | 1.72 ± 0.033 | 1.84 ± 0.1 |
| UACGGG | 1.62 ± 0.048 | 1.79 ± 0.09 |
| UAGACG | 1.7073 ± 0.00046 | 1.87 ± 0.12 |
| UAGACA | 1.73 ± 0.058 | 1.85 ± 0.15 |
| GAGCUU | 1.8 ± 0.045 | 1.9 ± 0.14 |
| GAGCUC | 1.83 ± 0.052 | 1.91 ± 0.15 |
| GAGCUA | 1.79 ± 0.038 | 1.88 ± 0.11 |
| CAGACG | 1.681 ± 0.013 | 1.77 ± 0.088 |
| CACGGU | 1.685 ± 0.015 | 1.84 ± 0.064 |
| CACGGC | 1.747 ± 0.0044 | 1.89 ± 0.11 |
| CACGGG | 1.63 ± 0.04 | 1.8 ± 0.06 |
| CAGAAU | 1.38 ± 0.13 | 1.53 ± 0.12 |

| Variant | normalized RNA/DNA level without ligand (log10) (cyclic di-GMP [1]) | normalized RNA/DNA level with ligand (log10) (cyclic di-GMP [2]) |
| --- | --- | --- |
| CAGAAG | 1.68 ± 0.039 | 1.86 ± 0.092 |
| CAGAAC | 1.54 ± 0.07 | 1.75 ± 0.089 |
| AACUAU | 1.662 ± 0.014 | 1.79 ± 0.11 |
| AACUAG | 1.616 ± 0.0088 | 1.78 ± 0.13 |
| AACUAC | 1.7 ± 0.019 | 1.84 ± 0.12 |
| UACUGG | 1.731 ± 0.015 | 1.85 ± 0.12 |
| UACUGA | 1.66 ± 0.044 | 1.82 ± 0.11 |
| UACUGU | 1.6108 ± 0.00033 | 1.79 ± 0.15 |
| UACUGC | 1.712 ± 0.0056 | 1.83 ± 0.13 |
| UAGGCG | 1.768 ± 0.013 | 1.87 ± 0.12 |
| UAGGCC | 1.819 ± 0.0024 | 1.9 ± 0.095 |
| UAGGCA | 1.68 ± 0.072 | 1.84 ± 0.13 |
| CAGCAU | 1.56 ± 0.1 | 1.72 ± 0.075 |
| CAGCAG | 1.79 ± 0.028 | 1.85 ± 0.12 |
| CAGCAC | 1.65 ± 0.067 | 1.79 ± 0.025 |
| AAGAAG | 1.46 ± 0.049 | 1.66 ± 0.093 |
| GAGAUC | 1.711 ± 0.0023 | 1.81 ± 0.11 |
| GAGAUG | 1.748 ± 0.0058 | 1.83 ± 0.071 |
| GAGAUA | 1.69 ± 0.015 | 1.76 ± 0.099 |
| CACCUC | 1.704 ± 0.014 | 1.87 ± 0.098 |
| CACCUG | 1.76 ± 0.023 | 1.85 ± 0.06 |
| AACCUA | 1.51 ± 0.041 | 1.71 ± 0.13 |
| AACCUG | 1.57 ± 0.029 | 1.73 ± 0.092 |

| Variant | normalized RNA/DNA level without ligand (log10) (cyclic di-GMP [1]) | normalized RNA/DNA level with ligand (log10) (cyclic di-GMP [2]) |
| --- | --- | --- |
| AACCUC | 1.757 ± 0.0019 | 1.85 ± 0.058 |
| GAGGGG | 1.77 ± 0.056 | 1.86 ± 0.1 |
| GAGGGA | 1.65 ± 0.027 | 1.74 ± 0.083 |
| GAGGGC | 1.66 ± 0.057 | 1.82 ± 0.077 |
| AAGCGG | 1.81 ± 0.035 | 1.88 ± 0.069 |
| AAGCGU | 1.56 ± 0.021 | 1.73 ± 0.11 |
| AAGCGC | 1.669 ± 0.011 | 1.84 ± 0.13 |
| UAGAUA | 1.614 ± 0.012 | 1.78 ± 0.11 |
| UAGAUC | 1.595 ± 0.014 | 1.82 ± 0.056 |
| UAGAUU | 1.6 ± 0.028 | 1.79 ± 0.067 |
| AACGGC | 1.68 ± 0.017 | 1.8 ± 0.071 |
| AACGGG | 1.51 ± 0.084 | 1.68 ± 0.098 |
| AACGGU | 1.52 ± 0.049 | 1.77 ± 0.1 |
| GACGUC | 1.671 ± 0.014 | 1.87 ± 0.1 |
| GACGUU | 1.619 ± 0.0079 | 1.81 ± 0.12 |
| GACGUA | 1.665 ± 0.013 | 1.8 ± 0.085 |
| GACGUG | 1.71 ± 0.052 | 1.83 ± 0.11 |
| GAGCCA | 1.79 ± 0.051 | 1.87 ± 0.1 |
| GAGCCC | 1.81 ± 0.1 | 1.92 ± 0.16 |
| GAGCCG | 1.823 ± 0.0091 | 1.9 ± 0.11 |
| AAGAGC | 1.59 ± 0.05 | 1.71 ± 0.1 |
| AAGAGU | 1.5 ± 0.035 | 1.71 ± 0.12 |
| UACUCC | 1.76 ± 0.035 | 1.9 ± 0.14 |

| Variant | normalized RNA/DNA level without ligand (log10) (cyclic di-GMP [1]) | normalized RNA/DNA level with ligand (log10) (cyclic di-GMP [2]) |
| --- | --- | --- |
| UACUCA | 1.77 ± 0.062 | 1.89 ± 0.18 |
| UACUCG | 1.77 ± 0.06 | 1.88 ± 0.17 |
| UACUCU | 1.73 ± 0.053 | 1.84 ± 0.07 |
| GACGAC | 1.608 ± 0.0074 | 1.78 ± 0.13 |
| GACGAG | 1.56 ± 0.091 | 1.71 ± 0.071 |
| AACUUU | 1.737 ± 0.004 | 1.85 ± 0.09 |
| AACUUC | 1.714 ± 0.0074 | 1.82 ± 0.095 |
| AACUUA | 1.615 ± 0.0013 | 1.79 ± 0.17 |
| AACUUG | 1.66 ± 0.051 | 1.85 ± 0.11 |
| GACCUC | 1.72 ± 0.047 | 1.86 ± 0.12 |
| GACCUU | 1.69 ± 0.0029 | 1.86 ± 0.13 |
| AACGCG | 1.702 ± 0.008 | 1.82 ± 0.12 |
| AACGCA | 1.67 ± 0.024 | 1.83 ± 0.076 |
| GAGAAA | 1.6011 ± 0.00083 | 1.72 ± 0.1 |
| GAGAAU | 1.663 ± 0.011 | 1.76 ± 0.098 |
| GAGAAC | 1.65 ± 0.031 | 1.8 ± 0.09 |
| CACUCG | 1.82 ± 0.042 | 1.87 ± 0.11 |
| CACUCC | 1.74 ± 0.077 | 1.84 ± 0.091 |
| CACUCU | 1.6 ± 0.019 | 1.77 ± 0.12 |
| CACUCA | 1.39 ± 0.1 | 1.62 ± 0.093 |
| GAGCAU | 1.83 ± 0.037 | 1.91 ± 0.11 |
| GAGCAA | 1.76 ± 0.023 | 1.83 ± 0.12 |
| GAGCAC | 1.82 ± 0.053 | 1.87 ± 0.077 |

| Variant | normalized RNA/DNA level without ligand (log10) (cyclic di-GMP [1]) | normalized RNA/DNA level with ligand (log10) (cyclic di-GMP [2]) |
| --- | --- | --- |
| CACUGA | 1.65 ± 0.039 | 1.77 ± 0.1 |
| CACUGG | 1.7 ± 0.035 | 1.81 ± 0.13 |
| CACUGC | 1.76 ± 0.024 | 1.87 ± 0.096 |
| CAGAGU | 1.652 ± 0.0071 | 1.86 ± 0.11 |
| CAGAGG | 1.64 ± 0.069 | 1.8 ± 0.046 |
| CAGAGA | 1.41 ± 0.064 | 1.64 ± 0.13 |
| CAGAGC | 1.67 ± 0.036 | 1.83 ± 0.09 |
| AAGCAG | 1.79 ± 0.081 | 1.9 ± 0.11 |
| AAGCAU | 1.655 ± 0.0071 | 1.82 ± 0.1 |
| AACGUU | 1.65 ± 0.056 | 1.82 ± 0.16 |
| AACGUC | 1.66 ± 0.024 | 1.78 ± 0.11 |
| AACGUA | 1.51 ± 0.024 | 1.73 ± 0.1 |
| AACGUG | 1.55 ± 0.083 | 1.7 ± 0.096 |
| CACGCC | 1.81 ± 0.044 | 1.86 ± 0.022 |
| CACGCG | 1.73 ± 0.028 | 1.83 ± 0.062 |
| CACGCU | 1.722 ± 0.0093 | 1.84 ± 0.12 |
| GACGCG | 1.81 ± 0.055 | 1.88 ± 0.045 |
| GACGCA | 1.77 ± 0.055 | 1.88 ± 0.085 |
| GACGCU | 1.71 ± 0.043 | 1.81 ± 0.097 |
| GACGCC | 1.75 ± 0.092 | 1.83 ± 0.11 |
| AAGGAC | 1.53 ± 0.1 | 1.73 ± 0.072 |
| AAGGAU | 1.49 ± 0.097 | 1.7 ± 0.096 |
| AAGGAG | 1.54 ± 0.14 | 1.67 ± 0.053 |
